Measurements: US20210063414A1, “METHODS FOR PREVENTING AND/OR TREATING BONE LOSS CONDITIONS BY MODULATING IRISIN” (Dana-Farber Cancer Institute, Inc., priority 2018, published 2021)

Tests used:
Test in all cases: Crosslinking/co-immunoprecipitation/mass spectrometry (TMT quantitative proteomics) to identify irisin receptors
Assay type in all cases: binding
[1] = molecular target: T1, MLO-Y4 cell surface proteins (Mus musculus, UniProt P08249); settings: co-precipitated protein Mdh2 (MDHM_MOUSE)
T1 construct: endogenous in cells; host or cells: MLO-Y4
T1 sequence (P08249 25-338): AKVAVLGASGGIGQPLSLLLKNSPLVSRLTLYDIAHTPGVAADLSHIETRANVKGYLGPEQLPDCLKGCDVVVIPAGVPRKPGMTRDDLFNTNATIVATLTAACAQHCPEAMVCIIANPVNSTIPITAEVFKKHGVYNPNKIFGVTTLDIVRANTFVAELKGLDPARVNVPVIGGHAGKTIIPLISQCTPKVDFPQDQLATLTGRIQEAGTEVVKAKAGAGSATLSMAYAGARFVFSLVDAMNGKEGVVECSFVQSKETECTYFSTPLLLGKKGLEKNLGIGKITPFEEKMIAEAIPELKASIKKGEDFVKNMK
Outline: (§1)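 Relative protein abundance came from 6-plex TMT MS3 quantitation on an Orbitrap Fusion Lumos, after in-gel trypsin digestion of Coomassie-stained SDS-PAGE lanes. Input was a Ni-NTA pulldown (250 mM imidazole elution) of lysates from murine MLO-Y4 cells. These cells were treated on ice with His-tagged irisin or adipsin (10 nM, 20 min) in serum-free medium, then crosslinked with 1.5 mM DTSSP for 30 min.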

[2] = molecular target: T2, MLO-Y4 cell surface proteins (Mus musculus, UniProt P62737); settings: co-precipitated protein Acta2 (ACTA_MOUSE)
T2 construct: endogenous in cells; host or cells: MLO-Y4
Outline: as §1

[3] = molecular target: T3, MLO-Y4 cell surface proteins (Mus musculus, UniProt Q8K221); settings: co-precipitated protein Arfip2 (ARFP2_MOUSE)
T3 construct: endogenous in cells; host or cells: MLO-Y4
T3 sequence (Q8K221 1-341): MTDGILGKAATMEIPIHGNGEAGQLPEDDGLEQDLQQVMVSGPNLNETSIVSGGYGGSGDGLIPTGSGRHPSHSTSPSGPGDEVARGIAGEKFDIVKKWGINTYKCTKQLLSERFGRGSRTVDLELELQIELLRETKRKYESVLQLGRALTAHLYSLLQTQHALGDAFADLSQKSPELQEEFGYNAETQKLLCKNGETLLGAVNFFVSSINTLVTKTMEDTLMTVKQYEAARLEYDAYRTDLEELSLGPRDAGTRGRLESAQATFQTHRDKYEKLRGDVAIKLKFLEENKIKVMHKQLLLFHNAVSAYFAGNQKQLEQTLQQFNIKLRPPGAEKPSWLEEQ
Outline: as §1

- TMT signal-to-noise ratio [1]: 2557.03
- TMT signal-to-noise ratio [2]: 361.157
- TMT signal-to-noise ratio [3]: 1092.57
Substance: adipsin
